The target of assay [1] is ratVEGF1-165 homodimer (recombinant full-length ratVEGF) (rat) (UniProt P16612). Kind of assay: ELISA on coated antigen.
Assay [2] has as its target humVEGF1-165 homodimer (recombinant full-length humanVEGF) (human) (UniProt P15692). Kind of assay: ELISA titer on coated humVEGF1-165, 5000 ng/mL.

Chain of ratVEGF1-165 homodimer (recombinant full-length ratVEGF) (rat) (P16612 27-165, form in doubt): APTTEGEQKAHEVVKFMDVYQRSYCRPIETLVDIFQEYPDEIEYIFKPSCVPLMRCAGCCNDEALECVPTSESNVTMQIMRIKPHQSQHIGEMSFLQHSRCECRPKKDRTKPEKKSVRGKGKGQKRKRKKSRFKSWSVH
Chain of humVEGF1-165 homodimer (recombinant full-length humanVEGF) (human) (P15692 other isoform, or with tags, fused parts or gaps): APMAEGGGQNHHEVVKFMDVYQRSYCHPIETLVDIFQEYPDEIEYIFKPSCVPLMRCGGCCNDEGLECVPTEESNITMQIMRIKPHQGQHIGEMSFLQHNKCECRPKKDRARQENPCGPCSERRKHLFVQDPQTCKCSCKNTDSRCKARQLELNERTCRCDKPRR

Avastin™ (Bevacizumab) (antibody): in assay [1], the ELISA signal at dilution 1/100 amounted to 236, the ELISA signal at dilution 1/300 was 148, the ELISA signal at dilution 1/1000 worked out at 103 and the titer endblood was < 1000 ng/mL.
BioVision™ (control Ab) (antibody): in assay [2], the Titer (-10log dilution) is 4.2.

Values taken from patent publication US20120231000A1.
